Laboratory results: patent US10517925B2, “Composition comprising KA11 polypeptide or gene encoding the same for inhibiting angiogenesis, and use thereof” (SEOUL NATIONAL UNIVERSITY R & DB FOUNDATION, priority 2015, dated 2019)
Entries after “also recorded” stand apart in the source; their conditions may differ.

Key:
[1] = system: KAI1 expression in 10T1/2; experiment: blocking of the cytokine-induced decrease in KAI1 expression of 10T1/2 by inhibitor pre-treatment; assay type: cell-based, mouse; conditions: 10T1/2, 50 μM methylation inhibitor, then cytokine (VEGF-A, bFGF, PDGF-bb)
Procedure: Before 10T1/2 was treated with 40 ng/ml of a cytokine (VEGF-A, bFGF or PDGF-bb) selected in Example 8-1, a cytokine receptor inhibitor was treated beforehand. To this end, VEGF-A- and PDGF-bb-treated groups were treated with a tyrosine kinase inhibitor named SU11248, and a bFGF-treated group was pre-treated with a tyrosine kinase inhibitor named PD173074 for 2 hours, treated with 40 ng/ml of each cytokine (VEGF-A, bFGF, and PDGF-bb) as an angiogenic factor for 24 hours, and then harvested to confirm KAI1 expression through RT-qPCR and Western blotting, and the result is shown in FIGS. 29A and 29B.
To confirm signaling of the decrease in KAI1 expression in 10T1/2 by a cytokine, RT-qPCR and Western blotting were used to confirm whether the decrease in KAI1 expression in 10T1/2 by a cytokine was blocked by treating 10T1/2 with a signal molecule inhibitor (a Src, Pkc, TGF-β, MAPK, AKT, p53. or JAK inhibitor) before cytokine stimulation, and the result is shown in FIGS. 35 to 38.
10T1/2 was treated with 50 μM of a methylation inhibitor (5-azacytidine), and then treated with each cytokine (VEGF-A, bFGF, and PDGF-bb), which is an angiogenic factor, to confirm KAI1 expression, and the result is shown in FIG. 40.

[2] = system: KAI1 expression in 10T1/2; experiment: KAI1 expression of 10T1/2 treated with angiogenic cytokines (RT-qPCR, Western blotting, immunostaining); assay type: cell-based, mouse; conditions: for KAI1 expression: 10T1/2, 40 ng/ml cytokine, until 72 hours; for KAI1 expression after removal of the stimulant: 10T1/2 stimulated 24 hours, then fresh culture media
Procedure: That is, the change in KAI1 expression according to time (24 hrs, 48 hrs or 72 hrs) after 10T1/2 was treated with 40 ng/ml of each cytokine (VEGF-A, bFGF or PDGF-bb) was identified through RT-qPCR, Western blotting and immunostaining, and thus the results are shown in FIGS. 31A and 31B and 32. Here, each group of 10T1/2 was treated with 40 ng/ml of each cytokine (VEGF-A, bFGF, and PDGF-bb) as an angiogenic factor and cultured in RPMI 1640 HEPES supplemented with 10% (v/v) fetal bovine serum (FBS) and 1% antibiotics-antimycotics for up to 72 hours without change in a culture medium.
After FGF or PDGF stimulation was given to 10T1/2, 24 hours later, the media was changed with fresh culture media (general culture media), and then RT-qPCR and Western blotting were conducted to confirm whether there was a change in the decreased expression of KAI1. […] From the result, it can be seen that the decrease in KAI1 expression was reversible.

[3] = system: MS-1 / 10T1/2 hybrid spheroid; experiment: EC-pericyte hybrid spheroid sprouting in collagen; assay type: cell-based, mouse; conditions: culture media supplemented with KAI1 protein
Source text: Here, a mouse endothelial cell line (MS-1) was used as ECs and 10T1/2 was used as pericytes. In addition, KAI1 was overexpressed using an adenovirus in pericytes. In the manufacture of the spheroid, a ratio of the number of each type of cell (EC:pericyte) was 2:1, and the total cell number was fixed at 3×10^3. As culture media used to grow the spheroids, 10% FBS and 1% antibiotics-antimycotics-containing Dulbecco's modified eagle medium (DMEM) was used. In addition, effective EC sprouting was induced by a treatment of 100 ng/ml of recombinant human VEGF.
Afterwards, to verify an anticancer effect of a KAI1 protein treatment, B16 and an EC-pericyte hybrid spheroid were manufactured and embedded in collagen, and then a degree of vessel formation was observed by time. Here, a mouse endothelial cell line (MS-1) was used as ECs, and 10T1/2 was used as pericytes. In the manufacture of the spheroid, a ratio of the number of each type of cell (EC:pericyte) was 2:1, and the total cell number was fixed at 3×10^3. As culture media used to grow the spheroids, Dulbecco's modified eagle medium (DMEM) supplemented with 10% FBS and 1% antibiotics-antimycotics and a KAI1 protein was used. As a result, as shown in FIGS. 50A and 50B and 51, it can be confirmed that the sprouting of the KAI1 protein was inhibited in the spheroids. Therefore, an anticancer effect of the KAI1 protein was able to be expected.

[4] = system: prostate cancer cell line (PC-3); experiment: PC-3 matrigel subcutaneous tumor mass formation in mice; assay type: in vivo, mouse; conditions: PC-3 with matrigel subcutaneously in mice, compared to vehicle
Source text: More specifically, a prostate cancer cell line (PC-3) was mixed with a matrigel and subcutaneously injected into mice, and then tumor mass formation was observed and compared per experimental group. […] In addition, it can be confirmed that tumor mass was smaller in a group injected with a supernatant of KAI1 O/E 10T1/2 than in a group injected with a supernatant of mock 10T1/2. After the tumor mass obtained in the above-mentioned experiment was fixed with PFA, the cross-section was formed into sections, and a degree of angiogenesis per experimental group was determined by IF. Antibodies used herein were BS-1 Lectin (EC marker, 488 fluorescence), α-SMA (Pericyte marker, 555 fluorescence), and DAPI (nucleus marker, 405 fluorescence).

mouse cornea = mouse cornea micropocket assay; assay type: in vivo; conditions: pellet containing both cytokine and protein, 10 days, similar to vehicle
Procedure: Based on the above-described in vitro experiment, a mouse cornea micropocket assay was performed to confirm whether angiogenesis was actually regulated by in vivo regulation of the KAI1 expression of pericytes. After a pocket formed by mixing cytokine, sucralfate and poly-hema (from which the cytokine was slowly secreted little by little) was manufactured and added to the mouse cornea, a degree of angiogenesis per experimental group was examined for 10 days. As a result, as shown in FIGS. 47A and 47B, it can be confirmed that, compared to a vehicle, angiogenesis in the mouse cornea injected with a pellet containing only a cytokine was added was much increased.

retinal angiogenesis = experiment: retinal disease model mouse, injection into the orbit; assay type: in vivo; conditions: injected into the orbit of model mouse, immunofluorescence, compared with control (not treated)
Procedure: Retinal diseases such as diabetic retinopathy and central serous (chorio)retinopathy are diseases of the loss of eyesight as vessel permeability is increased by a VEGF, body fluids gather around the retina (macular edema), and pathological angiogenesis occur.
A KAI1 protein was injected into the orbit of a model mouse with such a disease, and a degree of angiogenesis inhibition was compared with a control (not treated).

Nc1ncn([C@@H]2O[C@H](CO)[C@@H](O)[C@H]2O)c(=O)n1 [5-azacytidine]
KAI1 gene expression [1]: not decreased

bFGF: typical angiogenic factor (cytokine)
KAI1 expression [2]: continuously decreased
KAI1 expression after removal of the stimulant [2]: recovered again

B1: KAI1 protein: KAI1(CD82) polypeptide, human-derived amino acid sequence of SEQ ID NO: 1 or mouse-derived SEQ ID NO: 2 (protein)
chain: MGAGCVKVTKYFLFLFNLLFFILGAVILGFGVWILADKNSFISVLQTSSSSLQVGAYVFIGVGAITIVMGFLGCIGAVNEVRCLLGLYFVFLLLILIAQVTVGVLFYFNADKLKKEMGNTVMDIIRNYTANATSSREEAWDYVQAQVKCCGWVSHYNWTENEELMGFTKTTYPCSCEKIKEEDNQLIVKKGFCEADNSTVSENNPEDWPVNTEGCMEKAQAWLQENFGILLGVCAGVAVIELLGLFLSICLCRYIHSEDYSKVPKY
sprouting of B16 and EC-pericyte hybrid spheroids [3]: inhibited
tumor mass [4]: smaller
angiogenesis in the mouse cornea (mouse cornea): no angiogenesis
angiogenesis in the presence of VEGF (retinal angiogenesis): angiogenesis was inhibited; also recorded: inhibition of angiogenesis

B2: PDGF-bb: typical angiogenic factor (cytokine) (protein, UniProt P01127 82-190, looked up)
Platelet-derived growth …: SLGSLTIAEPAMIAECKTRTEVFEISRRLIDRTNANFLVWPPCVEVQRCSGCCNNRNVQCRPTQVQLRPVQVRKIEIVRKKPIFKKATVTLEDHLACKCETVAAARPVT
modifications: homodimer
KAI1 expression [2]: continuously decreased
KAI1 expression after removal of the stimulant [2]: recovered again
